Laboratory results reported in publication PMC6044470.

Molecular target: Chaetomium thermophilum Cdc48 (Chaetomium thermophilum)
Experiment: cryo-EM structure

Substance	stoichiometry N
Chaetomium thermophilum Cdc48 (enzyme)	6
Ufd1/Npl4 heterodimer (UN) from Chaetomium thermophilum (complex)	1
